The source of these data is patent publication US20230227537A1.

By EC50 is commonly meant the midpoint of the concentration-response curve. In general, Kd refers to the constant that tells how readily two partners part at equilibrium. The low end stands for tighter binding, the high end for weaker binding. The kon is the rate constant with which the complex forms. A low value points to slower complex formation. As a reminder, the koff is the rate constant with which the complex falls apart.

“And” between values parts separate entries of the source, which are not always exact repeats. Identical values can stand only once.

Assay [1] deals with recombinant prefusion stabilized SARS-CoV-2-2P spike protein (SARS-CoV-2) (UniProt P0DTC2).
For assay [2], the target named is Mouse IgG1 Fc fused SARS-CoV-2 RBD (Sino Biological) (SARS-CoV-2; mouse) (UniProt P0DTC2).

For “D72-02: VHH72-GS-hIgG1hinge-hIgG1Fc (Fc fusion)”, the EC50 in assay [1] stood at 0.0223 µg/mL.

Take “VHH72-T60W-hIgG1 Fc (P. pastoris supernatant) (Fc fusion)”: in assay [2], the % Signal decrease over 8 min dissociation is 13% and 15%; the equilibrium dissociation constant (Kd) was 75.7 nM and 53.1 nM; the on-rate (kon) is 41500 M⁻¹ s⁻¹ and 49700 M⁻¹ s⁻¹.

As to “VHH72_D61Q - (GGGGS)x2-hIgG1.Hinge-hIgG1.Fc (Fc fusion)”, in assay [2], the % Signal decrease over 8 min dissociation is 8% and 10%; the dissociation constant Kd is 0.0661 nM and 0.0642 nM; the koff was 0.000183 s⁻¹ and 0.000205 s⁻¹; the kon is 2.76e+06 M⁻¹ s⁻¹ and 3.19e+06 M⁻¹ s⁻¹.

In the case of “VHH72_V100L - (GGGGS)x2-hIgG1.Hinge-hIgG1.Fc (Fc fusion)”, in assay [2], the % Signal decrease over 8 min dissociation was 23% and 25%; the Kd was 0.076 nM and 0.0771 nM; the off-rate constant (koff) was 0.000557 s⁻¹ and 0.000637 s⁻¹; the association rate constant (kon) was 7.34e+06 M⁻¹ s⁻¹ and 8.26e+06 M⁻¹ s⁻¹.
